Laboratory results taken from PMC12102759.

B1: PAIP1 peptide 126-141 (Polyadenylate-binding protein-interacting protein 1), 16-mer library wild type / PABPC1 PABC (PABPC1 PABC domain, residues 544-623) (parent)
chain 1: SKLSVNAPEFYPSGYS
chain 2: PLTASMLASAPPQEQKQMLGERLFPLIQAMHPTLAGKITGMLLEIDNSELLHMLESPESLRSKVDEAVAVLQAHQAKEAA
B2: ATXN2 peptide 913-928 (Ataxin-2), 16-mer library wild type / PABPC1 PABC (PABPC1 PABC domain, residues 544-623) (parent)
chain 1: TLNPNAKEFNPRSFSQ
chain 2: B1 chain 2
B3: MXI1 peptide 4-19 (Max-interacting protein 1), 16-mer library wild type / SIN3A PAH2 (SIN3A PAH domain, residues 295-383) (parent)
chain 1: VKMINVQRLLEAAEFL
chain 2: SLQNNQPVEFNHAINYVNKIKNRFQGQPDIYKAFLEILHTYQKEQRNAKEAGGNYTPALTEQEVYAQVARLFKNQEDLLSEFGQFLPDA

Variants of: B1
Assay: proteomic peptide phage display deep mutational scan (ProP-PD DMS): M13 P8 16-mer library selected against immobilised GST-tagged bait for four days (rounds), NGS of the eluted pools per day and pseudo-replica
Conditions: with PABPC1 PABC (PABPC1 PABC domain, residues 544-623); bait immobilised on MaxiSorp plates (10 µg), library pre-cleared on GST, 2 h binding at 4 °C, five washes; one round per day, days 1-4; value from days 2 and 3; keep out of graded; scale: average fractional NGS count over selection days 2 and 3

Variant | screen value
chain 1 SYLSVNAPEFYPSGYS | 0.000158
chain 1 SDLSVNAPEFYPSGYS | 0.000197
chain 1 SHLSVNAPEFYPSGYS | 4.17e-05
chain 1 SKFSVNAPEFYPSGYS | 0.000815
chain 1 SKLSVNAPEFYPSRYS | 0.000231
chain 1 SKLSVNAPEFYPSSYS | 0.000279
chain 1 SKLSVNAPEFYPSEYS | 0.000246
chain 1 SKLSVNAPEFYPSTYS | 0.000205
chain 1 SKLSVNAPEFYPSVYS | 0.000565
chain 1 SKLSVNAPEFYPSQYS | 9.29e-05
chain 1 SKLSVNAPEYYPSGYS | 0.00206
chain 1 SKLSVNAPEVYPSGYS | 0
chain 1 SKLSVNAPEWYPSGYS | 0.0171
chain 1 SKLSVNMPEFYPSGYS | 0.000228
chain 1 SKLSVNPPEFYPSGYS | 0.000137
chain 1 SKLSVNHPEFYPSGYS | 0.000147
chain 1 SKLSVNTPEFYPSGYS | 0.00119
chain 1 SKLSVNLPEFYPSGYS | 4.17e-05
chain 1 SKLSVNAPYFYPSGYS | 0.000173
chain 1 SKLSVNAPHFYPSGYS | 0.00439
chain 1 SKLSVNAPMFYPSGYS | 0.00247
chain 1 SKLSVNAPRFYPSGYS | 4.17e-05
chain 1 SKLSVNAPNFYPSGYS | 0.00191
chain 1 SKLSVNAPPFYPSGYS | 0.000543
chain 1 SKLSVNAPIFYPSGYS | 8.24e-05

Second part, the variant after the results:

screen value | Variant
0 | chain 1 SKLSVNAPEFYPDGYS
0.000104 | chain 1 SKLSVNAPEFYPVGYS
0.000556 | chain 1 SKLSVNAPEFYPFGYS
0.000342 | chain 1 YKLSVNAPEFYPSGYS
0.00076 | chain 1 IKLSVNAPEFYPSGYS
0.000299 | chain 1 WKLSVNAPEFYPSGYS
0.000214 | chain 1 HKLSVNAPEFYPSGYS
0 | chain 1 FKLSVNAPEFYPSGYS
0.000615 | chain 1 SKLSVNAIEFYPSGYS
0.000185 | chain 1 SKLSVNAFEFYPSGYS
0.000763 | chain 1 SKLSVNAWEFYPSGYS
0.0134 | chain 1 SKLSVNANEFYPSGYS
0.00115 | chain 1 SKLSVNAPEFYPSGRS
0.00116 | chain 1 SKLSVNAPEFYPSGAS
0.000348 | chain 1 SKLSVNAPEFYPSGTS
0.000552 | chain 1 SKLSVNAPEFYPSGDS
0.00198 | chain 1 SKLSVNAPEFYASGYS
0.000623 | chain 1 SKLSVNAPEFYISGYS
0.00133 | chain 1 SKLSVNAPEFYSSGYS
0.000152 | chain 1 SKLSVNAPEFYQSGYS
0.000222 | chain 1 SKLSVNAPEFYTSGYS
0.00121 | chain 1 SKLSVNAPEFYFSGYS

screen value | Variant
0.00057 | chain 1 SKLSVNAPEFYHSGYS
0.000481 | chain 1 SKLSVNAPEFKPSGYS
0.000643 | chain 1 SKLSVNAPEFWPSGYS
0.00111 | chain 1 SKLSVNAPEFEPSGYS
0.000528 | chain 1 SKLSVNAPEFGPSGYS
0.00123 | chain 1 SKLSVNAPEFMPSGYS
0.000149 | chain 1 SKLSVMAPEFYPSGYS
0.000614 | chain 1 SKLSVIAPEFYPSGYS
0.000215 | chain 1 SKLSVVAPEFYPSGYS
0.00023 | chain 1 SKLSVLAPEFYPSGYS
0.000797 | chain 1 SKLSHNAPEFYPSGYS
0 | chain 1 SKLSYNAPEFYPSGYS
0.000898 | chain 1 SKLSLNAPEFYPSGYS
0.00035 | chain 1 SKLSANAPEFYPSGYS
9.64e-06 | chain 1 SKLSGNAPEFYPSGYS
0.000365 | chain 1 SKLRVNAPEFYPSGYS
0.000106 | chain 1 SKLEVNAPEFYPSGYS
9.02e-05 | chain 1 SKLVVNAPEFYPSGYS
0.000487 | chain 1 SKLTVNAPEFYPSGYS
0.000353 | chain 1 SKLKVNAPEFYPSGYS
0.000225 | chain 1 SKLYVNAPEFYPSGYS
8.55e-05 | chain 1 SKLMVNAPEFYPSGYS

Variants of: B2
Assay: as above
Conditions: with PABPC1 PABC (PABPC1 PABC domain, residues 544-623); bait immobilised on MaxiSorp plates (10 µg), library pre-cleared on GST, 2 h binding at 4 °C, five washes; one round per day, days 1-4; value from days 2 and 3; scale: average fractional NGS count over selection days 2 and 3

Variant | screen value
chain 1 TLNPNAKEFNPRSDSQ | 0.000335
chain 1 TLNPNAKEFNPRSSSQ | 8.48e-05
chain 1 TLNPNAKEFNPRSTSQ | 0.000127
chain 1 TLNPNAKLFNPRSFSQ | 0
chain 1 TLNPNAKIFNPRSFSQ | 0.000142
chain 1 TLNPNAKDFNPRSFSQ | 0
chain 1 TLNPNAKEGNPRSFSQ | 0
chain 1 TLNPNAKEQNPRSFSQ | 0
chain 1 TLNPNAKEYNPRSFSQ | 0.000112
chain 1 TLNPNAKEANPRSFSQ | 0
chain 1 TDNPNAKEFNPRSFSQ | 0
chain 1 TLNPNAREFNPRSFSQ | 0.000217
chain 1 TLNPNAEEFNPRSFSQ | 0.000169
chain 1 TLNPNAMEFNPRSFSQ | 3.88e-05
chain 1 TLIPNAKEFNPRSFSQ | 0
chain 1 TLKPNAKEFNPRSFSQ | 0
chain 1 TLHPNAKEFNPRSFSQ | 0
chain 1 TLAPNAKEFNPRSFSQ | 0
chain 1 TLNPNIKEFNPRSFSQ | 0.000105
chain 1 TLNPNPKEFNPRSFSQ | 0

Now from value to variant:

screen value | Variant
1.03e-05 | chain 1 TLNPPAKEFNPRSFSQ
0.000372 | chain 1 TLNPYAKEFNPRSFSQ
0.000305 | chain 1 TLNPSAKEFNPRSFSQ
0.000157 | chain 1 TLNPWAKEFNPRSFSQ
0.000264 | chain 1 TLNPNAKEFNPRSFNQ
0.00027 | chain 1 TLNPNAKEFNPRSFKQ
2.11e-05 | chain 1 TLNPNAKEFNPRSFTQ
0.000175 | chain 1 TLNPNAKEFNPRSFYQ
6.16e-05 | chain 1 TLNPNAKEFNPRSFLQ
0 | chain 1 TLNPNAKEFNPRIFSQ
0.000163 | chain 1 TLNPNAKEFNPRMFSQ
0.000117 | chain 1 TLNPNAKEFNPREFSQ
0.000423 | chain 1 TLNPNAKEFNPRVFSQ
0.00026 | chain 1 TLNPNAKEFNPRHFSQ
0.000149 | chain 1 TLNPNAKEFNPRKFSQ
7.96e-05 | chain 1 TLNPNAKEFNPRFFSQ
0.000262 | chain 1 TLNPNAKEFGPRSFSQ

screen value | Variant
1.03e-05 | chain 1 TLNPNAKEFVPRSFSQ
2.66e-05 | chain 1 TLNPNAKEFEPRSFSQ
0.000142 | chain 1 TLNPNAKEFKPRSFSQ
9.64e-06 | chain 1 TLNPNAKEFNIRSFSQ
8.32e-05 | chain 1 TLTPNAKEFNPRSFSQ
0 | chain 1 TLPPNAKEFNPRSFSQ
0.000331 | chain 1 TLNQNAKEFNPRSFSQ
0 | chain 1 TLNWNAKEFNPRSFSQ
0.000191 | chain 1 TLNANAKEFNPRSFSQ
0 | chain 1 TLNYNAKEFNPRSFSQ
1.57e-05 | chain 1 TLNENAKEFNPRSFSQ
0.000109 | chain 1 TLNFNAKEFNPRSFSQ
0.000147 | chain 1 TLNSNAKEFNPRSFSQ
0.000115 | chain 1 ELNPNAKEFNPRSFSQ
0.000237 | chain 1 QLNPNAKEFNPRSFSQ
4.71e-05 | chain 1 WLNPNAKEFNPRSFSQ
0.000147 | chain 1 SLNPNAKEFNPRSFSQ

Variants of: B3
Assay: as above
Conditions: with SIN3A PAH2 (SIN3A PAH domain, residues 295-383); bait immobilised on MaxiSorp plates (10 µg), library pre-cleared on GST, 2 h binding at 4 °C, five washes; one round per day, days 1-4; value from days 2 and 3; keep out of graded; scale: average fractional NGS count over selection days 2 and 3

Variant | screen value
chain 1 VKMINVQRLLGAAEFL | 0
chain 1 VKMINVQRLLWAAEFL | 0.00397
chain 1 VKMINVQRLLEAAERL | 3.85e-05
chain 1 VKMINVQRLLEAAEYL | 0.00011
chain 1 VKMINVQRLLEAAEVL | 2.36e-05
chain 1 VKMINVQRLLEAAEFG | 5.21e-05
chain 1 VKMINVQRLLEAAEFS | 9.12e-05
chain 1 VKMINVQRLLEAAEFE | 7.18e-05
chain 1 VKMINVQRLLEAAEFR | 0.000122
chain 1 VKMINVQRLLEAAEFD | 5.21e-05
chain 1 VKMINVQRLLEAAEFK | 7.16e-05
chain 1 VKMINVQRLLEAAEFH | 0.000538
chain 1 VKMINVQRLLEAAEFM | 3.86e-05
chain 1 VKMINVQRLLEAAEFQ | 0.000343
chain 1 VKMINVQRLLEAAEFA | 0.000201
chain 1 VKMLNVQRLLEAAEFL | 0.00108
chain 1 VKMGNVQRLLEAAEFL | 4.79e-05
chain 1 VKMKNVQRLLEAAEFL | 0
chain 1 VKMDNVQRLLEAAEFL | 0.00294
chain 1 VKMWNVQRLLEAAEFL | 8.32e-05
chain 1 VKMINVQRLLEAFEFL | 0.00117
chain 1 VKMINVQRLLEAKEFL | 0
chain 1 VKMINVQRLLEADEFL | 2.4e-05
chain 1 VKMINVQRLLEAHEFL | 0.000246

Variant | screen value
chain 1 VKMINVQRLLEAIEFL | 0.000995
chain 1 VKMINVQRGLEAAEFL | 0
chain 1 VKMINVQRNLEAAEFL | 0
chain 1 VKDINVQRLLEAAEFL | 0.000126
chain 1 VKNINVQRLLEAAEFL | 2.4e-05
chain 1 VKTINVQRLLEAAEFL | 4.82e-05
chain 1 VKHINVQRLLEAAEFL | 0.000154
chain 1 VKMINVQRLLEAARFL | 0.00116
chain 1 VKMINVQRLLEAAQFL | 0.00119
chain 1 VKMINVQRLLEAASFL | 0.00604
chain 1 VKMINVQRLLEAAYFL | 0.00266
chain 1 VKMINVQRLLEAAMFL | 0.00144
chain 1 VKMINVQRLLEAADFL | 0.0127
chain 1 VIMINVQRLLEAAEFL | 0.00027
chain 1 VMMINVQRLLEAAEFL | 0.000167
chain 1 VGMINVQRLLEAAEFL | 0.00453
chain 1 VLMINVQRLLEAAEFL | 0.00133
chain 1 VWMINVQRLLEAAEFL | 0.00198
chain 1 VNMINVQRLLEAAEFL | 0.00263
chain 1 VPMINVQRLLEAAEFL | 0.00116
chain 1 VVMINVQRLLEAAEFL | 0.000308
chain 1 VQMINVQRLLEAAEFL | 0.00731
chain 1 VKMINVQRLVEAAEFL | 0

Second part, the variant after the results:

screen value | Variant
0.000199 | chain 1 VKMINVQILLEAAEFL
2.88e-05 | chain 1 VKMINVQVLLEAAEFL
0.000316 | chain 1 VKMINVQKLLEAAEFL
0.000466 | chain 1 VKMINVQALLEAAEFL
0.000195 | chain 1 VKMINVQWLLEAAEFL
0.000148 | chain 1 VKMINVQYLLEAAEFL
5.66e-05 | chain 1 VKMINVQLLLEAAEFL
0.000565 | chain 1 VKMIGVQRLLEAAEFL
0.00143 | chain 1 VKMIWVQRLLEAAEFL
0.000135 | chain 1 VKMIFVQRLLEAAEFL
0 | chain 1 VKMINVGRLLEAAEFL
0 | chain 1 VKMINVERLLEAAEFL
0.000125 | chain 1 VKMINVSRLLEAAEFL
0.000284 | chain 1 VKMINVTRLLEAAEFL
0.000431 | chain 1 VKMINVLRLLEAAEFL
0.00118 | chain 1 VKMINVVRLLEAAEFL
0.000458 | chain 1 VKMINYQRLLEAAEFL
0 | chain 1 VKMINSQRLLEAAEFL
